Assay results published in publication PMC9102066, “Cloning and Functional Characterization of Dog OCT1 and OCT2: Another Step in Exploring Species Differences in Organic Cation Transporters” (International Journal of Molecular Sciences, 2022).

Assays:
[1] = substrate: O=C(O[C@H]1C[C@H]2CC[C@@H](C1)[N+]21CCCC1)C(O)(c1ccccc1)c1ccccc1; assay: Uptake in HEK293 cells stably overexpressing mouse OCT1; type: in vitro ADME; settings: other: OCT1-mediated uptake, HEK293, 2 min, Michaelis–Menten fit; pH 7.4
Experimental: (§1) The total uptake is shown for the overexpressing and control cells (left hand side). OCT1-mediated uptake (right hand side) was calculated by subtracting the uptake of control cells (pcDNA5) from the uptake of OCT1-overexpressing cells. The means and standard errors of the means are shown for at least three independent experiments.
(§2) At 48 h prior to the experiment, 6 × 10^5 cells were seeded per well in 12-well plates pre-coated with poly-D-lysine.
(§3) Cellular uptake experiments were performed at 37 °C and pH 7.4 using Hanks’ Buffered Salt Solution (HBSS) supplemented with 10 mM HEPES (referred to as HBSS+ in the following). Cells were washed with 1 mL pre-warmed (37 °C) HBSS+ and uptake was initiated by adding 400 µL of pre-warmed HBSS+ containing the substrate. Uptake was allowed for exactly 2 min and stopped by adding 2 mL ice-cold HBSS+. Cells were washed twice with 2 mL ice-cold HBSS+ then lysed with 80% acetonitrile supplemented with internal standard. The intracellularly accumulated substrate concentrations were measured using LC-MS/MS as described in the following and normalized to the amount of total protein in the samples as measured using the bicinchoninic acid assay [49].
(§4) Intracellular substrate concentrations were quantified using LC-MS/MS. […] The pellet was reconstituted with 200 µL 0.1% formic acid and between 5 and 10 µL was injected into the LC-MS/MS system (Table S2).
(§5) An API4000 QTRAP tandem mass spectrometer with ESI interface (AB SCIEX, Darmstadt, Germany) coupled to a Shimadzu Nexera X2 UHPLC system with LC 30AD pumps and SiL 30AC autosampler (Shimadzu, Duisburg, Germany) was used for analysis.
(§6) Intrinsic clearance CLint was calculated by dividing vmax by KM for each experiment. Kinetic parameters were compared between OCT1 orthologs using an ANOVA followed by Tukey’s honestly significant difference post hoc comparisons in SPSS Statistics version 28 (SPSS Inc., IBM, Chicago, IL, USA).

[2] = substrate: CCCC[N+]1(C)[C@@H]2C[C@@H](OC(=O)[C@H](CO)c3ccccc3)C[C@H]1[C@@H]1O[C@@H]12; assay: as above; type: in vitro ADME; settings: other: OCT1-mediated uptake, HEK293, 2 min, Michaelis–Menten fit; pH 7.4
Experimental: as §1, §2, §3, §4, §5, §6

[3] = substrate: CN(C)C(=N)N=C(N)N; assay: as above; type: in vitro ADME; settings: other: OCT1-mediated uptake, HEK293, 2 min, Michaelis–Menten fit; pH 7.4
Experimental: as §1, §2, §3, §4, §5, §6

[4] = substrate: CC(Cc1ccc(O)cc1)NCC(O)c1cc(O)cc(O)c1; assay: cells, lysate or membranes named; settings: HEK293, 2 min, Michaelis–Menten fit, pH 7.4
[5] = substrate: O=C(O[C@H]1C[C@H]2CC[C@@H](C1)[N+]21CCCC1)C(O)(c1ccccc1)c1ccccc1; assay: Uptake in HEK293 cells stably overexpressing human OCT2; type: in vitro ADME; settings: other: OCT2-mediated uptake, HEK293, 2 min, Michaelis–Menten fit; pH 7.4
Experimental: (§7) The total uptake is shown for the overexpressing and control cells (left hand side). OCT2-mediated uptake (right hand side) was calculated by subtracting the uptake of control cells (pcDNA5) from the uptake of OCT2-overexpressing cells. The means and standard errors of the means are shown for at least three independent experiments.
(§8) Cells were cultured in Dulbecco’s Modified Eagle’s Medium (DMEM) supplemented with 10% FBS, 100 U/mL penicillin, and 100 µg/mL streptomycin at 37 °C and 5% CO2. Cells were passaged twice a week.
as §2, §3, §4, §5
(§9) Intrinsic clearance CLint was calculated by dividing vmax by KM for each experiment.

[6] = substrate: CCCC[N+]1(C)[C@@H]2C[C@@H](OC(=O)[C@H](CO)c3ccccc3)C[C@H]1[C@@H]1O[C@@H]12; assay: as above; type: in vitro ADME; settings: other: OCT2-mediated uptake, HEK293, 2 min, Michaelis–Menten fit; pH 7.4
Experimental: as §7, §8, §2, §3, §4, §5, §9

B1: mouse OCT1 (Mus musculus) (protein)
chain: MPTVDDVLEHVGEFGWFQKQAFLLLCLISASLAPIYVGIVFLGFTPDHHCRSPGVAELSQRCGWSPAEELNYTVPGLGSAGEASFLSQCMKYEVDWNQSTLDCVDPLSSLAANRSHLPLSPCEHGWVYDTPGSSIVTEFNLVCGDAWKVDLFQSCVNLGFFLGSLVVGYIADRFGRKLCLLVTTLVTSLSGVLTAVAPDYTSMLLFRLLQGMVSKGSWVSGYTLITEFVGSGYRRTTAILYQVAFTVGLVGLAGVAYAIPDWRWLQLAVSLPTFLFLLYYWFVPESPRWLLSQKRTTQAVRIMEQIAQKNRKVPPADLKMMCLEEDASERRSPSFADLFRTPSLRKHTLILMYLWFSCAVLYQGLIMHVGATGANLYLDFFYSSLVEFPAAFIILVTIDRIGRIYPIAASNLVAGAACLLMIFIPHELHWLNVTLACLGRMGATIVLQMVCLVNAELYPTFIRNLGMMVCSALCDLGGIFTPFMVFRLMEVWQALPLILFGVLGLSAGAVTLLLPETKGVALPETIEEAENLGRRKSKAKENTIYLQVQTGKSPHT
notes: expressed in transfected cells; host or cells: HEK293 (Flp-In system)
**Q.** Which Km [1] does the source give for B1 here?
**A.** 1.92 ± 0.85 µM

**Q.** And the Vmax [1]?
**A.** 0.000255 µmol/min/mg

**Q.** And the Vmax/Km [1]?
**A.** 180 µL/min/mg

**Q.** What about the Km [2] of the same protein?
**A.** 6.60 ± 1.13 µM

**Q.** And the Vmax [2]?
**A.** 0.000778 µmol/min/mg

**Q.** And the Vmax/Km [2]?
**A.** 131 µL/min/mg

**Q.** What about the Km [3] of the same protein?
**A.** 298 ± 46.9 µM

**Q.** What about the Vmax [3] of the same protein?
**A.** 0.0109 ± 0.00125 µmol/min/mg

**Q.** And the Vmax/Km [3]?
**A.** 38.7 µL/min/mg

**Q.** What about the Km ([4]; other: OCT1-mediated uptake) of the same protein?
**A.** 10.7 ± 1.09 µM

B2: human OCT2 (Homo sapiens) (protein)
chain: MPTTVDDVLEHGGEFHFFQKQMFFLLALLSATFAPIYVGIVFLGFTPDHRCRSPGVAELSLRCGWSPAEELNYTVPGPGPAGEASPRQCRRYEVDWNQSTFDCVDPLASLDTNRSRLPLGPCRDGWVYETPGSSIVTEFNLVCANSWMLDLFQSSVNVGFFIGSMSIGYIADRFGRKLCLLTTVLINAAAGVLMAISPTYTWMLIFRLIQGLVSKAGWLIGYILITEFVGRRYRRTVGIFYQVAYTVGLLVLAGVAYALPHWRWLQFTVSLPNFFFLLYYWCIPESPRWLISQNKNAEAMRIIKHIAKKNGKSLPASLQRLRLEEETGKKLNPSFLDLVRTPQIRKHTMILMYNWFTSSVLYQGLIMHMGLAGDNIYLDFFYSALVEFPAAFMIILTIDRIGRRYPWAASNMVAGAACLASVFIPGDLQWLKIIISCLGRMGITMAYEIVCLVNAELYPTFIRNLGVHICSSMCDIGGIITPFLVYRLTNIWLELPLMVFGVLGLVAGGLVLLLPETKGKALPETIEEAENMQRPRKNKEKMIYLQVQKLDIPLN
notes: as for B1
**Q.** What does the source list for B2?
**A.** Km [5]: 0.49 ± 0.15 µM; Vmax [5]: 0.000119 µmol/min/mg; Vmax/Km [5]: 278 µL/min/mg; Km [6]: 7.62 ± 0.85 µM; Vmax [6]: 0.000616 µmol/min/mg; Vmax/Km [6]: 81.6 µL/min/mg; Km ([4]; other: OCT2-mediated uptake): 8.81 ± 0.55 µM
